Assay results from patent US20050239072, “Device and methods for concentrating prion protein isoforms” (published 2005).

Legend:
[1] = biological target: T1, human recombinant prion protein hrPrP (PrP23-231) (Homo sapiens, UniProt P04156 P04156:23-231); assay: FP filter; no tRNA; 250 mM NaCl, 2 mM MgCl2, 37 C; conditions: tags: E. coli GST fusion, GST removed by thrombin cleavage
[2] = biological target: T1, human recombinant prion protein hrPrP …; assay: FP filter; conditions: tags: E. coli GST fusion, GST removed by thrombin cleavage; label: 32P internal
[3] = biological target: human recombinant PrP90-231 (lacks N-terminal 23-90) (Homo sapiens, UniProt P04156 P04156:90-231)
[4] = biological target: T1, human recombinant prion protein hrPrP …; assay: pulldown; conditions: tags: E. coli GST fusion, GST removed by thrombin cleavage; label: none; hybridized to oligo-dT-cellulose

B1: RQT157 (ssRNA)
RNA: GGGGUUUCGAACCGGAAUUUGAGGGAUGCCUAGGCAUCCCCCGUGCGUCCCUUUACGAGGGAUUGUCGACUCUAGAGGAUCCGGUACCUGAGGGAUGCCUAGGCAUCCCCGCGCGCCGGUUUCGGACCUCCAGUGCGUGUUACCGCACUGUCGACCC
With B1 as the binder, how does the Kd ([1]; label: 32P internal) read?
The Kd was 56 nM.

B2: MNV:AP1 (ssRNA)
RNA: GGGUUCAUAGCCUAUUCGGCUUCGCGCAUGGGAAUUUGAGGGACGAUGGGGAAGUGGGAGCGCGUUUUAAAGGACCUUUUUCCCUCGCGUAGCUAGCUACGCGAGGUGACCCCCCGAAGGGGGGUGCCCC
Which Kd [2] does the source give for B2 here?
Its Kd is 3.8 nM.

B3: RQ11+12 (ssRNA)
RNA: GGGGUUUCCAACCGGAAUUUGAGGGAUGCCUAGGCAUCCCCCGUGCGUCCCUUUACGAGGGAUUGUCGACUCUAGUCGACGUCUGGGCGAAAAAUGUACGAGAGGACCUUUUCGGUACAGACGGUACCUGAGGGAUGCCUAGGCAUCCCCGCGCGCCGGUUUCGGACCUCCAGUGCGUGUUACCGCACUGUCGACCC
B3 was tested. Which Kd ([1]; label: 32P internal (alpha-32P CTP)) did it give?
The Kd was 26 nM.

Does B3 bind [3]?
Result: no binding

B4: RQAAA (RQ11+12 with 3' poly-A15) (ssRNA)
RNA: GGGGUUUCCAACCGGAAUUUGAGGGAUGCCUAGGCAUCCCCCGUGCGUCCCUUUACGAGGGAUUGUCGACUCUAGUCGACGUCUGGGCGAAAAAUGUACGAGAGGACCUUUUCGGUACAGACGGUACCUGAGGGAUGCCUAGGCAUCCCCGCGCGCCGGUUUCGGACCUCCAGUGCGUGUUACCGCACUGUCGACCCAAAAAAAAAAAAAAA
Does B4 bind [4]?
Result: binds
